Reference: the supplement of paper PMC10219994
± gives the standard deviation of the averaged measurements.

B1: library; a variant is named by its letters at N, in order (parent)
chain: GAGACCGCAACTGAAAAGTTGTGGNNNNNATAGTGAGTCGCTGCCTGCAAAGACACAACT

Variants of: B1
Experiment: ligation selection enrichment (abundance after / before one-round selection) (fold); higher = more template-directed ligation activity
Details: with T7Psub CACGGAUGCUAAUACGACUCACUAUA; MgCl2 25 mM; 42 °C; 4 h; pH 8.5
Outline: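 In each of two independent experiments, 6 μM RNA substrate was reacted for 4 h at 42 °C with 0.75 μM of a T7-transcribed RNA ligase library randomized at five core positions, in buffer containing 50 mM EPPS pH 8.5 and 25 mM MgCl2. Only reads scoring ≥30 in quality at all randomized positions were counted after MiSeq sequencing. Each enrichment value is the ratio of abundance after ligation to abundance before ligation.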

| Variant | ligation selection enrichment |
| --- | --- |
| CCCTG | 0.425 ± 0.013 |
| CCCTT | 0.213 ± 0.065 |
| GAGGA | 0.501 ± 0.11 |
| GAGGC | 0.17 ± 0.017 |
| GGCCT | 0.408 ± 0.092 |
| GGCCA | 0.241 ± 0.083 |
| ACGGC | 0.122 ± 0.01 |
| ACGGG | 0.165 ± 0.012 |
| ACCTG | 0.4917 ± 0.0012 |
| ACCTC | 0.0933 ± 0.036 |
| ACCTA | 0.18 ± 0.017 |
| ACCTT | 0.117 ± 0.004 |
| TTTAT | 1.19 ± 0.53 |
| CCCCG | 0.49 ± 0.0033 |
| CGAAC | 0.246 ± 0.0029 |
| CGAAG | 0.4199 ± 0.0032 |
| CCGTT | 0.149 ± 0.04 |
| CCGTG | 0.111 ± 0.0037 |
| ATTCT | 0.471 ± 0.21 |
| GCTCT | 0.165 ± 0.064 |
| GAAAC | 0.146 ± 0.044 |

| Variant | ligation selection enrichment |
| --- | --- |
| TCTGC | 0.143 ± 0.0073 |
| TCTGG | 0.417 ± 0.035 |
| TCTGA | 0.256 ± 0.023 |
| GTAAA | 0.321 ± 0.067 |
| GTAAC | 0.305 ± 0.011 |
| GTAAG | 0.509 ± 0.011 |
| CAAGG | 0.2 ± 0.024 |
| CGTGT | 0.172 ± 0.066 |
| GTCCC | 0.151 ± 0.0044 |
| AGGCC | 0.21 ± 0.013 |
| GTCTA | 0.177 ± 0.024 |
| GTCTT | 0.114 ± 0.069 |
| TCGTT | 0.205 ± 0.12 |
| TCGTG | 0.173 ± 0.047 |
| TCGTC | 0.202 ± 0.02 |
| AGGAC | 14.4 ± 2.2 |
| AGGAG | 0.806 ± 0.1 |
| AACCT | 0.845 ± 0.39 |
| AACCC | 0.21 ± 0.032 |
| AGTAT | 6.55 ± 1.2 |
| AGTAC | 0.492 ± 0.1 |

| Variant | ligation selection enrichment |
| --- | --- |
| CTGTT | 0.3 ± 0.027 |
| GTTGA | 5.22 ± 0.32 |
| GTTGT | 0.353 ± 0.054 |
| GTTGC | 0.769 ± 0.034 |
| TACTG | 0.641 ± 0.095 |
| TACTC | 0.103 ± 0.036 |
| CACCG | 0.217 ± 0.047 |
| CCCAC | 0.168 ± 0.017 |
| CCCAT | 0.674 ± 0.13 |
| TTAAG | 0.69 ± 0.15 |
| TTAAC | 0.52 ± 0.0073 |
| TTAAA | 0.329 ± 0.06 |
| GGAGA | 0.285 ± 0.02 |
| CCGCT | 0.4 ± 0.15 |
| CCGCC | 0.148 ± 0.0024 |
| GATAT | 0.446 ± 0.11 |
| TTCGT | 0.267 ± 0.029 |
| TTCGA | 2.1 ± 0.11 |
| TTCGG | 0.397 ± 0.024 |
| GCCTT | 0.162 ± 0.02 |
| GCCTC | 0.114 ± 0.0038 |

| Variant | ligation selection enrichment |
| --- | --- |
| AACAT | 0.729 ± 0.14 |
| AACAC | 0.159 ± 0.016 |
| AACAG | 0.2191 ± 0.00078 |
| GAGAG | 0.663 ± 0.061 |
| GAGAC | 0.765 ± 0.031 |
| ATGTC | 0.1721 ± 0.0012 |
| GTCGG | 0.443 ± 0.054 |
| GTCGT | 0.297 ± 0.13 |
| TATAC | 0.22 ± 0.0018 |
| TATAA | 0.182 ± 0.077 |
| CTCAC | 0.0889 ± 0.01 |
| CTCAT | 0.104 ± 0.013 |
| GCAAA | 0.304 ± 0.025 |
| TGATC | 0.143 ± 0.062 |
| TGATT | 2.4 ± 0.61 |
| TGATG | 0.708 ± 0.08 |
| ATTTG | 4.54 ± 1.9 |
| ATTAC | 0.217 ± 0.042 |
| ATTAG | 1.02 ± 0.19 |
| GGCGA | 1.52 ± 0.26 |
| TATTC | 0.186 ± 0.0052 |
